# In the supplement of paper PMC12042874:
# ± gives the uncertainty stated by the source.
# What was measured:
# [1] = amyloid nucleation score (Sup35N fusion, yeast selection) (log enrichment); library NNK2; higher = more nucleation; inactive = no reads after selection
# Procedure, shortened: (§1)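 The nucleation score is a DiMSum log enrichment of output over input reads, centred on the mode score of non-aggregating sequences. Sequences under 100 input reads were excluded, and reads came from Illumina sequencing of plasmid inserts. Psi-negative yeast expressing Sup35N fused to peptides of 20 random codons were induced with 100 μM copper sulfate for 24 hours and grown 7 days at 30°C on medium lacking adenine and uracil. Random libraries had three technical output replicates.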
# [2] = amyloid nucleation score (Sup35N fusion, yeast selection) (log enrichment); library NNK3; higher = more nucleation; inactive = no reads after selection
# Procedure, shortened: as §1
Substance,amyloid nucleation score [1],amyloid nucleation score [2]
RLTLVNRAGCIVCNGQGCLQ,9.245 ± 0.069,–
VLTDSCKFYCELCQLNREVY,0.443 ± 0.36,–
QRSNGTNYHPPYKMKISHRP,inactive,–
GMYGLCF,-0.524 ± 0.64,–
GVIWWPVTLCFWLCAKYIGL,-0.552 ± 1.1,–
NNELDRISRTVCLWWVG,-0.239 ± 0.65,–
YFWGMFEYW,inactive,–
YFYIF,2.03 ± 0.12,–
WTWEKWESPHEDGSRRPIVG,1.55 ± 0.18,–
LKHKHRNMRITCSASI,-0.269 ± 0.25,–
FKNFFSYLLLGVPLIAAITW,-1.67 ± 0.41,–
NNRWFRRGLGLSLDWTDCLS,-0.492 ± 1.1,–
PRVRSAVQSLRGVKYCLGRR,-0.531 ± 0.63,–
FSSFDIMRQLTMLNICLVSW,5.773 ± 0.047,–
VTEHRNHIKTWTTQSSLCDW,0.124 ± 0.37,–
NVITRGM,0.899 ± 0.38,–
CCNMTHYDFSGYNDGAMQDC,-0.424 ± 0.76,–
TNSMNGFFFR,-1.81 ± 1,–
SDMDYLWLCIVRTVLNVIYR,-1.17 ± 1.1,–
GGSVMQILGWFLQAV,0.683 ± 0.42,–
GNRYSLCEAYATYLFSLDWY,inactive,–
CMKMSWFRTRSTYSIEALHS,0.037 ± 0.41,–
GLTSFMLDVLRGETAHRGEG,0.972 ± 0.52,–

Substance,amyloid nucleation score [1],amyloid nucleation score [2]
YVYWWTYERMVSWSIYCVNT,2.96 ± 0.097,–
VRGYRVGVWLRTGRVLVYRG,-0.282 ± 0.76,–
SLSHRADACVTS,-0.647 ± 0.64,–
TWNGVWLGDFACFSWYMGPL,0.094 ± 0.36,–
NLKKAQFRGMYVAYP,1.55 ± 0.47,–
PNVCKLYMWQFGTLNQAPQR,8.399 ± 0.065,–
GRSFILTRLRFIFPVYTVC,inactive,–
VRKGCLTRACWRGCECMQGG,2.03 ± 0.12,–
LVMRMFRERYNLCVSYWLN,inactive,–
CAFVGKVSTARLVSSRNSFN,5.801 ± 0.045,–
FHIDTIRTVRLAWYTTEHWQ,5.34 ± 0.07,–
GQVLLFCMRTTYTMDEEFNS,0.082 ± 1,–
SQSKDMMCLSGSYSYYTACA,-1.21 ± 0.78,–
CGKCSVCG,0.502 ± 0.27,–
VTALYGSSICMSRSDY,0.119 ± 0.47,–
TVSNPGMPNAI,-0.557 ± 0.64,–
RPVSGTNFINAN,–,inactive
PELVFPMLADRPVRAQKLPC,–,inactive
LCRNWVR,–,inactive
LCHYYLRSKLMAFDMLAFPS,–,inactive
IIMLTFQVNVTFASVWRTRS,–,inactive
RATKEGKRLDML,–,-0.725 ± 1.9
PGGKVANESMQSSTHDDPGR,–,inactive

Substance,amyloid nucleation score [1],amyloid nucleation score [2]
SLSVVMLLKVVVRPSNWWEG,–,inactive
ALEAFKRFNLYELGCKGIKV,–,inactive
FFKFFWFSRRPISSFLGLCV,–,0.708 ± 0.15
MMCFTLS,–,inactive
VNLGDGHVDDSIASQDMWHK,–,inactive
DGDIVDSG,–,-0.616 ± 0.8
YTFIIGIKHSTSSFNMSFSM,–,0.613 ± 0.25
VSEFRRVYFSAQFSRVGNSC,–,inactive
CDLMAKGSCIEQPQPSVAGK,–,inactive
ELLSCLKIWDIL,–,inactive
HDVFSNYLITVQTFLWLSGV,–,inactive
LMYLTCPPRGDSTFPKVIRQ,–,inactive
FYIYWLFPIIVSFDYVFSGL,–,inactive
MWVPTRHKGLYFVNVVFACH,–,inactive
PVYGRIKANLKMGLAGGSWV,–,inactive
GRVESSVIYRPLNLGGGQES,–,inactive
NWGVVYYISSCNGNSSHLSS,–,1.83 ± 0.097
CTSGLVVGLVFLMI,–,-0.716 ± 1.4
WYPLGRPRVLINYETPTSVM,–,inactive
FALMFLSWYNRKSVSRPCTE,–,inactive
WPAAQVNQIHYCVGLNNYTW,–,inactive
VSMCNLNGVLPLNLFRLGLC,–,inactive
ICTDGVHGCMVGS,–,inactive

Substance,amyloid nucleation score [1],amyloid nucleation score [2]
IFVNWMVISVGLARFDVINA,–,-0.579 ± 0.69
SLSFIECLMELNNLVYYLGS,–,inactive
YQSTVFGCYTYSRLKCLRSA,–,inactive
SAFGTQGYCKSSVFPEASPR,–,inactive
AIHTSPLIIPPNRFVRYRNR,–,inactive
TGYLAMWLY,–,inactive
VREFTFYDV,–,inactive
LWRKMVVPYFYP,–,inactive
LIIVMFPAVCIVFDFNFTVF,–,inactive
LTLLHRKRMVLRYCNFMLYL,–,inactive
TLTWHNVWGCICGKFLTV,–,inactive
TYTFLSPVIDYKLYVYQCRT,–,1.72 ± 0.067
CDFREVTLDY,–,inactive
LVINL,–,inactive
WARIYKMLIF,–,inactive
IPFGFSI,–,inactive
DIVYQARCA,–,inactive
CIPPCW,–,inactive
RLSGSEKVELM,–,inactive
AYLIRIGVIRLFLTLCCG,–,inactive
FLVNDYFV,–,inactive
GCRLPSWMYLVGELISFLSG,–,inactive
TRKMLLVVSKYVMTPYGFGL,–,inactive

Substance,amyloid nucleation score [1],amyloid nucleation score [2]
MVTRMCYIACLVFRVWAMCR,–,inactive
VSYRCSTICTNLVITVCLCD,–,0.25 ± 0.34
VVMVLRVLLWWFRTSIMSRK,–,0.467 ± 0.19
FWLSHQNDDVYTFMPLSCSS,–,inactive
LCGLSDSYCRA,–,inactive
RSGFAKMNAILLYFASFLL,–,inactive
DDAKFVWYVNINYRYMDSRS,–,2.16 ± 0.065
RPTGYQVTYEMRRSGG,–,inactive
VNPIERWA,–,inactive
GVRLAWVTSCCRV,–,inactive
SFYLVYRGIFDISLTEFVL,–,inactive
LLFQMVHLTCVMYLLVSSTL,–,inactive
SDMCMVLFLLTVYFVMSGRC,–,0.133 ± 0.67
GWGVHWFYIMVINHLF,–,inactive
SHRGDAVLVFCLVCLVILDG,–,inactive
MWACSKYRWMHATDGVGLTY,–,0.674 ± 0.17
LYFYNIESLAMIFNMNENLV,–,2.31 ± 0.058
YVFVCIRPPLVGVHEFNSRS,–,-0.089 ± 0.56
SSYLNYIFSMTLECIYGC,–,-0.272 ± 0.47
CYGALVVQTAYME,–,inactive
DARVVGVLDVRDLAKYFWMA,–,inactive
GWFMCVSTAWGVYNAYIPMQ,–,inactive
SCIFPILGVFADDFTMTFTW,–,inactive

Substance,amyloid nucleation score [1],amyloid nucleation score [2]
RKYTKCSFRKKSWCPSPFEL,–,inactive
IAIKNSSRRYMNYERLFTKL,–,inactive
VTVRKFMVSLWSGGPTWDGR,–,inactive
FPELSGDYLVIRMTVQFWSV,–,inactive
HWMVSCYFSVRLRARLSRRG,–,inactive
SSNNQMWTELITYCLRCAWV,–,inactive
FVSRGKLLPNAPGFMWFLLR,–,-0.533 ± 1.9
LYLQVALRTWLLSRWDLDDI,–,inactive
NDCLFNKILAVRSFTLLAGK,–,inactive
GIKNMRSISKFGWVFLIYTV,–,inactive
SAFNEFFF,–,inactive
MTYGLFVIYMRGGSNLMLHV,–,inactive
FGFPTFFSMTV,–,inactive
EDLVISNIFGWFGCLGLVYT,–,inactive
RSLCQQYQRFSSLRKVIGLS,–,inactive
TDVIYVDGPLA,–,inactive
LMPCALFSGVYEAGRHGSFL,–,0.462 ± 0.34
SMQKGGK,–,inactive
LSLFVGGAEGWVKGDPASEG,–,0.507 ± 0.25
YTLKCIQVVWLSMPVSVSNV,–,inactive
NMGWSSSYH,–,inactive
CIYCTSSL,–,0.519 ± 0.21
VEELKYRHNALNFRKNVQSL,–,inactive

Substance,amyloid nucleation score [1],amyloid nucleation score [2]
MGKKSAHLSYRICVQCGKDG,–,inactive
SIGVFRYFVLVLHYWYGISS,–,inactive
LHVLPEQARTPRVTVPVFSP,–,-0.339 ± 1.1
RDRLVWDRCRTVAPSTGVVR,–,inactive
SNVGSDDTFLVLLHSHSRSG,–,0.72 ± 0.49
KDNTYVIFFYYLFVFVRTFL,–,inactive
NDVSRNLSMFNY,–,inactive
LVLPVSFRVCFREVIIHMKY,–,inactive
EMNVLCGTYKFQFGVASGVD,–,-0.385 ± 0.73
MVKDCITRVYFVVWFDYSRS,–,inactive
NASIRDGNMTFFSQAVTRLA,–,inactive
MTLCLLSFRGQRSMPLYLWT,–,inactive
RSLDD,–,inactive
QDLTLLCVSIWWKLGWSESR,–,inactive
YYTGFTIFLLRVWLLAGVGS,–,inactive
NFRVLVVNVKTFLMVVKVMF,–,inactive
RPVSTSYVRLRRVRFSYNLN,–,inactive
DSSLKMGCKGWNVYVGATLV,–,0.866 ± 0.16
CQISWL,–,inactive
LYVDCGLRIWRNMSAIVGCV,–,inactive
